Source: publication PMC9907207 (2023)

Target: SARS-CoV-2 RBD (residues 319-541), ancestral strain (SARS-CoV-2, UniProt P0DTC2 319-541)
Test: BLI

Row | Binder | Kd [pM]
1 | GAR12, human IgG1 monoclonal antibody (antibody, V domains shown, biotin (EZ-Link NHS-PEG4-Biotin, 10:1) where loaded on the sensor) VH: EVQLVQSGGGLVQPGGSLRLSCAASGFTFSSYAMSWVRQAPGKGLEWVLSISGSGGSTYYADSVKGRFTISIDNSKKTVYLQMNSLRAEDTAVYYCAKSGEQQLVQAEYFHHWGQGTLVTVSS VL: DIQMTQSPSTLSASVGDRVTITCRASQSIGRWLAWYQQKPGKAPKLLIYDASSLESGVPSRFSGSGFGTEFTLTISSLQPDDFATYYCQQCDSLLTFGGGTKLEIK | 200
2 | GAR03, human IgG1 monoclonal antibody (antibody, V domains shown, biotin (EZ-Link NHS-PEG4-Biotin, 10:1) where loaded on the sensor) VH: QVQLVQSGAEVKKPGASVKVSCKASGYTFSSYDINWVRQAPGQGLEWMGWMSPNSGNTGYAQKFQGRVTMTRSTSMSTAYMELSSLRSEDTAVYFCARMSSSLTNYLDYWGQGTLVTVSS VL: SYVLTQPPSVAVAPGQTARIRCGENDIGSKNVHWYQQKSGQAPVLVVYDDSDRPSGIPERFSGSNSGNTATLTISRVEAGDEADYYCQVWDSTGDHPDVVFGGGTKLTVL | 310
